This passage reports Kd results from PMC3674922, “Single-molecule photobleaching reveals increased MET receptor dimerization upon ligand binding in intact cells” (BMC Biophysics, 2013).

This test deals with T1, soluble MET ectodomain (MET928) (human, UniProt P08581 25-932).
T1 construct: MET receptor tyrosine kinase, human, soluble complete ectodomain (MET928)
The test is described as follows: fluorescence correlation spectroscopy (FCS); in solution; 1 nM InlB-ATTO647N, MET928 titrated from 0.01 nM to 1-2 uM; PBS with 0.05% Tween-20; at least 3 h at room temperature; objective at 20°C; diffusion time fitted to a 1:1 binding model. The conditions noted are these: both partners purified.

For orientation: Kd means the concentration at which binding is half-saturated.

T1 sequence (P08581 25-932): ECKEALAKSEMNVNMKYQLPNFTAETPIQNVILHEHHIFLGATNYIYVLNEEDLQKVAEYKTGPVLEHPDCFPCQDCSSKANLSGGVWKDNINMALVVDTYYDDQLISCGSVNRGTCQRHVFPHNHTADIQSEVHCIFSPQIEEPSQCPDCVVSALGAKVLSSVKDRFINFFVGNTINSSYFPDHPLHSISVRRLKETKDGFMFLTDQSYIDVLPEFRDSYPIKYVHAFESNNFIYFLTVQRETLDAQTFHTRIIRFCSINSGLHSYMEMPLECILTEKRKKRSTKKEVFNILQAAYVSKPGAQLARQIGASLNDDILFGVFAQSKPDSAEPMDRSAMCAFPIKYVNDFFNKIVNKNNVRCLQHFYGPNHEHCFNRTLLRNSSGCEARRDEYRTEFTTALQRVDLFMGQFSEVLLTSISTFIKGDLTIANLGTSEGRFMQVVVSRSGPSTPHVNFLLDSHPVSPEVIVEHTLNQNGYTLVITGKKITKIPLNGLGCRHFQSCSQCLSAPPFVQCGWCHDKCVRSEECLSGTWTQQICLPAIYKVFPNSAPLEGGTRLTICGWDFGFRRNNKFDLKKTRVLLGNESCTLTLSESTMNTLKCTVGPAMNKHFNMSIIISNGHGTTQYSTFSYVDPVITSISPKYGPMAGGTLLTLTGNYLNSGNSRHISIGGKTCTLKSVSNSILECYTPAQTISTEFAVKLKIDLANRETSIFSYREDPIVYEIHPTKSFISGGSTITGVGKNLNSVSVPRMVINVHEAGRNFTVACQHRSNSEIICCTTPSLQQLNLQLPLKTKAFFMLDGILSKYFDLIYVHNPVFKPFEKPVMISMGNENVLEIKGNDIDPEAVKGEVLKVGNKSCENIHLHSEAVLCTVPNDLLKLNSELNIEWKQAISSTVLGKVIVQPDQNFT

B1: InlB-ATTO647N (InlB321 with C242A and K280C, labelled with ATTO647N at C280) (domain or fragment)
chain: ETITVPTPIKQIFSDDAFAETIKDNLKKKSVTDAVTQNELNSIDQIIANNSDIKSVQGIQYLPNVTKLFLNGNKLTDIKPLANLKNLGWLFLDENKVKDLSSLKDLKKLKSLSLEHNGISDINGLVHLPQLESLYLGNNKITDITVLSRLTKLDTLSLEDNQISDIVPLAGLTKLQNLYLSKNHISDLRALAGLKNLDVLELFSQEALNKPINHQSNLVVPNTVKNTDGSLVTPEIISDDGDYECPNVKWHLPEFTNEVSFIFYQPVTIGKAKARFHGRVTQPLKE
modifications: ATTO647N attached to C280 by maleimide coupling (degree of labeling 0.5)
notes: internalin B (InlB) of Listeria monocytogenes, N-terminal internalin domain, amino acids 36-321 (InlB321); either way residue 280 is cysteine; also called dye-labeled InlB321; internalin domain of InlB
B1 registered a dissociation constant (Kd) of 5 ± 0.8 nM.
